From article PMC6411343 (International Journal of Oncology, 2019)

B1: [^125I]I-HPEM-G3-GGGC (DARPin G3-GGGC, site-specifically labelled with [^125I]I-iodo-[(4-hydroxyphenyl)ethyl]maleimide) (designed binder)
chain: DLGKKLLEAARAGQDDEVRILMANGADVNAKDEYGLTPLYLATAHGHLEIVEVLLKNGADVNAVDAIGFTPLHLAAFIGHLEIAEVLLKHGADVNAQDKFGKTAFDISIGNGNEDLAEILQKLNGGGGC
modifications: [^125I]I-HPEM ([^125I]iodo-[(4-hydroxyphenyl)ethyl]maleimide) on the C-terminal cysteine (maleimide-cysteine coupling)
B2: [^125I]I-G3-GGGC-IAA (DARPin G3-GGGC, directly radioiodinated, terminal cysteine capped with iodoacetamide) (designed binder)
chain: B1 chain
modifications: iodine-125 by direct iodination; terminal cysteine capped by alkylation with iodoacetamide (IAA)
B3: [^125I]I-G3-H6 (DARPin G3-H6, directly radioiodinated with iodine-125) (designed binder)
chain: MDLGKKLLEAARAGQDDEVRILMANGADVNAKDEYGLTPLYLATAHGHLEIVEVLLKNGADVNAVDAIGFTPLHLAAFIGHLEIAEVLLKHGADVNAQDKFGKTAFDISIGNGNEDLAEILQKLNGS
modifications: iodine-125 on tyrosines (direct chloramine-T radioiodination, random attachment; number and position not controlled)

What follows are binders tested against human epidermal growth factor receptor 2 (HER2) (human (endogenous in SKOV3, BT474, …, UniProt P04626 23-1255)) (assay: radioligand binding).

KD1 (high affinity interaction, 1:2 interaction model) [pM] | KD2 (low affinity interaction, 1:2 interaction model) [nM] | Binder
99 | 3.5 | B1
146 | 1.5 | B2
163 | 3.9 | B3
